Laboratory results reported in patent US20200181198A1 (3M INNOVATIVE PROPERTIES, published 2020).
Ends that are not written are not given here.

Columns and labels:
[1] = biological target: T1, Recombinant Human Epidermal Growth Factor (EGF) (human, UniProt P01133 971-1023); assay: dot blot, peptide spotted on nitrocellulose, EGF in solution, anti-EGF-IgG-HRP detection
T1 construct: Commercial reagent; also called EGF protein
Description: SEQ ID NO: 1 (1 microliter of a 10 nM solution in PBS containing 3 wt. % DMSO) and SEQ ID NO: 2 (1 microliter of a 10 nM solution in PBS containing 3 wt. % DMSO) were individually spotted at separate sites on a nitrocellulose membrane (obtained from Thermo Fisher Scientific, Waltham, Mass.) and the membrane was dried in air for about 30 minutes. The membrane was then incubated in 25 mL of blocking buffer (3 wt. % BSA in PBS) for one hour at room temperature. The membrane was washed three times (15 minutes for each wash) with 15 mL portions of fresh PBST. The washed membrane was incubated with EGF protein [10 microliters of a 100 ng/mL solution in blocking buffer (3 wt. % BSA in PBS)] with gentle agitation for one hour. The membrane was again washed three times (15 minutes for each wash) with 15 mL portions of fresh PBST. The washed membrane was incubated with anti-EGF-IgG-HRP [1:5000 dilution in 10 mL of the blocking buffer (3 wt. % BSA in PBS)] for one hour with gentle agitation. Following the incubation, the membrane was washed three times (15 minutes for each wash) with 15 mL portions of fresh PBST. The washed membrane was incubated with 10 mL of the development solution for horseradish peroxidase (TMB-Blotting Substrate Solution, Pierce-Fisher Scientific, Rockford, Ill.) with gentle agitation. The color development was stopped by adding water.

[2] = biological target: T1, Recombinant Human Epidermal Growth …; assay: dot blot, EGF spotted on nitrocellulose, biotinylated peptide in solution, Streptavidin-HRP detection
Description: EGF (1 microliter of a 10 nM solution in PBS was spotted a nitrocellulose membrane (obtained from Thermo Fisher Scientific) and the membrane was dried in air for about 30 minutes. The membrane was then incubated in 15 mL of blocking buffer (3 wt. % BSA in PBS) for one hour at room temperature. The membrane was washed three times (15 minutes for each wash) with 15 mL portions of fresh PBST. The washed membrane was incubated with Biotinylated SEQ ID NO: 1 [10 mL of a 10 ng/mL solution in blocking buffer (3 wt. % BSA in PBS)] with gentle agitation for one hour. The membrane was again washed three times (15 minutes for each wash) with 15 mL portions of fresh PBST. The washed membrane was incubated with Streptavidin-HRP [1:5000 dilution in 10 mL of the blocking buffer (3 wt. % BSA in PBS)] for 30 minutes with gentle agitation. Following the incubation, the membrane was washed three times (15 minutes for each wash) with 15 mL portions of fresh PBST. The washed membrane was incubated with 10 mL of the development solution for horseradish peroxidase (TMB-Blotting Substrate Solution, Pierce-Fisher Scientific) with gentle agitation. The color development was stopped by adding water. A dark spot developed at the application site on the membrane indicating affinity of SEQ ID NO: 1 for EGF.

[3] = biological target: T2, Recombinant Human Tumor Necrosis Factor-alpha (TNF-alpha) (human, UniProt P01375 77-233); assay: SPR (Biacore 3000, CM5 chip), linker modified peptide immobilized, TNF-alpha as analyte, 25 C
T2 construct: Commercial reagent; also called TNFα
T2 sequence (P01375 77-233 limits assumed): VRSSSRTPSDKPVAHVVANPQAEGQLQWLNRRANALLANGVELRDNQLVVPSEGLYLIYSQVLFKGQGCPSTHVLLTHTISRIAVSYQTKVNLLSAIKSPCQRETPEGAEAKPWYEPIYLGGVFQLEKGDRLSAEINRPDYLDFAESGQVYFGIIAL
Description: (§1) The following Test Method A was used for determining the binding affinity (KD) of SEQ ID NO: 1 for EGF and TNF-[…] Binding experiments were performed using Biacore 3000 optical biosensors equipped with research-grade CM5 sensor chips (GE Healthcare Bio-Sciences Corporation). The reagents used for the amine-coupling steps [(1-ethyl-3-(3-dimethylaminopropyl)-carbodiimide (EDC); N-hydroxysuccinimide (NHS); and ethanolamine hydrochloride-NaOH (1 M, pH 8.5)] were obtained from GE Healthcare Bio-Sciences Corporation. In order to efficiently immobilize the peptide on the sensor chips, a modified version of SEQ ID NO:1 was prepared by SPPS in which a “CK” amino acid linker sequence was added to the N-terminal end of the SEQ ID NO: 1 peptide (i.e. linker modified version of SEQ ID NO: 1 for immobilization being […]). A standard coupling protocol was employed to immobilize the linker modified version of SEQ ID NO: 1 via the lysine residues. The immobilization was performed at 25° C. using HBS-EP as the running buffer. The CM-dextran surfaces of the sensor chip flow cells were activated by a seven minute injection (20 microliters/minute) of freshly prepared 1:1 50 mM NHS: 200 mM EDC. A solution of linker modified SEQ ID NO: 1 in acetic acid (20 mM, pH 5.5) was injected to target 200 response units (RU). […]

[4] = biological target: T1, Recombinant Human Epidermal Growth …; assay: SPR (Biacore 3000, CM5 chip), linker modified peptide immobilized by amine coupling, EGF analyte 62.5-1000 nM, 25 C, 1:1 Langmuir global fit
Description: as §1

[5] = biological target: T2, Recombinant Human Tumor Necrosis …; assay: SPR (Biacore 3000, CM5 chip), linker modified peptide immobilized, TNF-alpha as analyte, Test Method A; TNF-alpha as analyte
Description: as §1

[6] = biological target: T1, Recombinant Human Epidermal Growth …; assay: SPR (Biacore 3000, CM5 chip), linker modified peptide immobilized, EGF as analyte, Test Method A; EGF as analyte
Description: as §1

T1 sequence (P01133 971-1023 limits assumed): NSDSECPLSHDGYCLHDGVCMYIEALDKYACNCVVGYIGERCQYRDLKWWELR

B1: SEQ ID NO: 1 peptide (YVSPGMKNVNWWSHWWHATD) (peptide)
peptide: Ac-YVSPGMKNVNWWSHWWHATD-NH2
notes: Chemically synthesized (SPPS, GenScript)
binding result [1]: binds

B2: SEQ ID NO: 2 peptide (KNVNWWSHWWHATD) (peptide)
peptide: Ac-KNVNWWSHWWHATD-NH2
notes: as for B1
binding result [1]: binds

YVSPGMKNVNWWSHWWHATD-NH2 (not fully specified (N-terminus); also: biotinylated, site not given here) [Biotinylated SEQ ID NO: 1]
binding result [2]: binds

B3: linker modified version of SEQ ID NO: 1 (CKYVSPGMKNVNWWSHWWHATD) (peptide)
peptide: CKYVSPGMKNVNWWSHWWHATD
modifications: not fully specified (N-terminus, C-terminus); also: immobilized on CM5 chip by amine coupling via lysine residues
binding result [3]: no binding | Kd [4]: 0.706 µM

B4: linker modified version of SEQ ID NO: 2 (CKNVNWWSHWWHATD) (peptide)
peptide: CKNVNWWSHWWHATD
modifications: not fully specified (N-terminus, C-terminus); also: immobilized on CM5 chip by amine coupling or conjugated to iodoacetyl magnetic beads via linker cysteine
Kd [5]: 2450 µM | Kd [6]: 2.6 µM
